# Results reported in US20240270846A1 (published 2024).
# Numbering of substitutions follows the chain as printed.
# B1: CE115HA000 H chain altered form N31Q (antibody, human IgG1, kappa, L234A L235A, N297A, name in Kabat numbering)
# heavy: QVQLVESGGGVVQPGRSLRLSCAASGFTFSQAWMHWVRQAPGKGLEWVAQIKAKSNNYATYYAESVKGRFTISRDDSKNSLYLQMNSLKTEDTAVYYCRYVHYGAYYGVDAWGQGTTVTVSSASTKGPSVFPLAPSSKSTSGGTAALGCLVKDYFPEPVTVSWNSGALTSGVHTFPAVLQSSGLYSLSSVVTVPSSSLGTQTYICNVNHKPSNTKVDKKVEPKSCDKTHTCPPCPAPEAAGGPSVFLFPPKPKDTLMISRTPEVTCVVVDVSHEDPEVKFNWYVDGVEVHNAKTKPREEQYASTYRVVSVLTVLHQDWLNGKEYKCKVSNKALPAPIEKTISKAKGQPREPQVYTLPPSRCELTKNQVSLSCAVKGFYPSDIAVEWESNGQPENNYKTTPPVLDSDGSFFLVSKLTVDKSRWQQGNVFSCSVMHEALHNHYTQKSLSLSPDYKDDDDK
# chain: EPKSSDKTHTCPPCPAPELLGGPSVFLFPPKPKDTLMISRTPEVTCVVVDVSHEDPEVKFNWYVDGVEVHNAKTKPREEQYNSTYRVVSVLTVLHQDWLNGKEYKCKVSNKALPAPIEKTISKAKGQPREPQVCTLPPSRDELTKNQVSLWCLVKGFYPSDIAVEWESNGQPENNYKTTPPVLDSDGSFFLYSKLTVDKSRWQQGNVFSCSVMHEALHNRYTQKSLSLSP
# light: DIVMTQSPLSLPVTPGEPASISCRSSQSLVHSNRNTYLHWYQQKPGQAPRLLIYKVSNRFSGVPDRFSGSGSGTDFTLKISRVEAEDVGVYYCGQGTQVPYTFGQGTKLEIKRTVAAPSVFIFPPSDEQLKSGTASVVCLLNNFYPREAKVQWKVDNALQSGNSQESVTEQDSKDSTYSLSSTLTLSKADYEKHKVYACEVTHQGLSSPVTKSFNRGEC
# notes: one-arm antibody
# B2: CE115HA000 H chain altered form N53Q (antibody, human IgG1, kappa, L234A L235A, N297A, name in Kabat numbering)
# heavy: B1 heavy with Q31N, N56Q
# chain: B1 chain
# light: B1 light
# notes: one-arm antibody
# B3: CE115HA000 H chain altered form N54Y (antibody, human IgG1, kappa, L234A L235A, N297A, name in Kabat numbering)
# heavy: B1 heavy with Q31N, N57Y
# chain: B1 chain
# light: B1 light
# notes: one-arm antibody
# B4: CE115HA000 H chain altered form N31W (antibody, human IgG1, kappa, L234A L235A, N297A, name in Kabat numbering)
# heavy: B1 heavy with Q31W
# chain: B1 chain
# light: B1 light
# notes: one-arm antibody
# B5: CE115HA000 H chain altered form N53H (antibody, human IgG1, kappa, L234A L235A, N297A, name in Kabat numbering)
# heavy: B1 heavy with Q31N, N56H
# chain: B1 chain
# light: B1 light
# notes: one-arm antibody
# B6: CE115HA000 H chain altered form Q50K (antibody, human IgG1, kappa, L234A L235A, N297A, name in Kabat numbering)
# heavy: B1 heavy with Q31N, Q50K
# chain: B1 chain
# light: B1 light
# notes: one-arm antibody
# B7: CE115HA000 H chain altered form N53G (antibody, human IgG1, kappa, L234A L235A, N297A, name in Kabat numbering)
# heavy: B1 heavy with Q31N, N56G
# chain: B1 chain
# light: B1 light
# notes: one-arm antibody
# B8: CE115HA000 H chain altered form N53K (antibody, human IgG1, kappa, L234A L235A, N297A, name in Kabat numbering)
# heavy: B1 heavy with Q31N, N56K
# chain: B1 chain
# light: B1 light
# notes: one-arm antibody
# B9: CE115HA000 H chain altered form N53A (antibody, human IgG1, kappa, L234A L235A, N297A, name in Kabat numbering)
# heavy: B1 heavy with Q31N, N56A
# chain: B1 chain
# light: B1 light
# notes: one-arm antibody
# B10: CE115HA000 H chain altered form N31Y (antibody, human IgG1, kappa, L234A L235A, N297A, name in Kabat numbering)
# heavy: B1 heavy with Q31Y
# chain: B1 chain
# light: B1 light
# notes: one-arm antibody
# B11: CE115HA000 H chain altered form N54S (antibody, human IgG1, kappa, L234A L235A, N297A, name in Kabat numbering)
# heavy: B1 heavy with Q31N, N57S
# chain: B1 chain
# light: B1 light
# notes: one-arm antibody
# B12: CE115HA000 H chain altered form N54D (antibody, human IgG1, kappa, L234A L235A, N297A, name in Kabat numbering)
# heavy: B1 heavy with Q31N, N57D
# chain: B1 chain
# light: B1 light
# notes: one-arm antibody
# B13: CE115HA000 H chain altered form N54K (antibody, human IgG1, kappa, L234A L235A, N297A, name in Kabat numbering)
# heavy: B1 heavy with Q31N, N57K
# chain: B1 chain
# light: B1 light
# notes: one-arm antibody
# B14: CE115HA000 H chain altered form Q50E (antibody, human IgG1, kappa, L234A L235A, N297A, name in Kabat numbering)
# heavy: B1 heavy with Q31N, Q50E
# chain: B1 chain
# light: B1 light
# notes: one-arm antibody
# B15: CE115HA000 H chain altered form N54Q (antibody, human IgG1, kappa, L234A L235A, N297A, name in Kabat numbering)
# heavy: B1 heavy with Q31N, N57Q
# chain: B1 chain
# light: B1 light
# notes: one-arm antibody
# B16: CE115HA000 H chain altered form N53S (antibody, human IgG1, kappa, L234A L235A, N297A, name in Kabat numbering)
# heavy: B1 heavy with Q31N, N56S
# chain: B1 chain
# light: B1 light
# notes: one-arm antibody
# B17: CE115HA000 H chain altered form N54L (antibody, human IgG1, kappa, L234A L235A, N297A, name in Kabat numbering)
# heavy: B1 heavy with Q31N, N57L
# chain: B1 chain
# light: B1 light
# notes: one-arm antibody
# B18: CE115HA000 H chain altered form N31S (antibody, human IgG1, kappa, L234A L235A, N297A, name in Kabat numbering)
# heavy: B1 heavy with Q31S
# chain: B1 chain
# light: B1 light
# notes: one-arm antibody
# B19: CE115HA000 H chain altered form Q50I (antibody, human IgG1, kappa, L234A L235A, N297A, name in Kabat numbering)
# heavy: B1 heavy with Q31N, Q50I
# chain: B1 chain
# light: B1 light
# notes: one-arm antibody
# B20: CE115HA000 H chain altered form Q50A (antibody, human IgG1, kappa, L234A L235A, N297A, name in Kabat numbering)
# heavy: B1 heavy with Q31N, Q50A
# chain: B1 chain
# light: B1 light
# notes: one-arm antibody
# B21: CE115HA000 H chain altered form N54A (antibody, human IgG1, kappa, L234A L235A, N297A, name in Kabat numbering)
# heavy: B1 heavy with Q31N, N57A
# chain: B1 chain
# light: B1 light
# notes: one-arm antibody
# B22: CE115HA000 H chain altered form N53D (antibody, human IgG1, kappa, L234A L235A, N297A, name in Kabat numbering)
# heavy: B1 heavy with Q31N, N56D
# chain: B1 chain
# light: B1 light
# notes: one-arm antibody
# B23: CE115HA000 H chain altered form Q50Y (antibody, human IgG1, kappa, L234A L235A, N297A, name in Kabat numbering)
# heavy: B1 heavy with Q31N, Q50Y
# chain: B1 chain
# light: B1 light
# notes: one-arm antibody
# B24: CE115HA000 H chain altered form N54G (antibody, human IgG1, kappa, L234A L235A, N297A, name in Kabat numbering)
# heavy: B1 heavy with Q31N, N57G
# chain: B1 chain
# light: B1 light
# notes: one-arm antibody
# B25: CE115HA000 H chain altered form N53W (antibody, human IgG1, kappa, L234A L235A, N297A, name in Kabat numbering)
# heavy: B1 heavy with Q31N, N56W
# chain: B1 chain
# light: B1 light
# notes: one-arm antibody
# B26: CE115HA000 H chain altered form N54F (antibody, human IgG1, kappa, L234A L235A, N297A, name in Kabat numbering)
# heavy: B1 heavy with Q31N, N57F
# chain: B1 chain
# light: B1 light
# notes: one-arm antibody
# B27: CE115HA000 H chain altered form N31R (antibody, human IgG1, kappa, L234A L235A, N297A, name in Kabat numbering)
# heavy: B1 heavy with Q31R
# chain: B1 chain
# light: B1 light
# notes: one-arm antibody
# B28: CE115HA000 H chain altered form N53Y (antibody, human IgG1, kappa, L234A L235A, N297A, name in Kabat numbering)
# heavy: B1 heavy with Q31N, N56Y
# chain: B1 chain
# light: B1 light
# notes: one-arm antibody
# B29: CE115HA000 H chain altered form Q50D (antibody, human IgG1, kappa, L234A L235A, N297A, name in Kabat numbering)
# heavy: B1 heavy with Q31N, Q50D
# chain: B1 chain
# light: B1 light
# notes: one-arm antibody
# B30: CE115HA000 H chain altered form Q50S (antibody, human IgG1, kappa, L234A L235A, N297A, name in Kabat numbering)
# heavy: B1 heavy with Q31N, Q50S
# chain: B1 chain
# light: B1 light
# notes: one-arm antibody
# B31: CE115HA000 H chain altered form Q50L (antibody, human IgG1, kappa, L234A L235A, N297A, name in Kabat numbering)
# heavy: B1 heavy with Q31N, Q50L
# chain: B1 chain
# light: B1 light
# notes: one-arm antibody
# B32: CE115HA000 H chain altered form N53I (antibody, human IgG1, kappa, L234A L235A, N297A, name in Kabat numbering)
# heavy: B1 heavy with Q31N, N56I
# chain: B1 chain
# light: B1 light
# notes: one-arm antibody
# B33: CE115HA000 H chain altered form R16E (antibody, human IgG1, kappa, L234A L235A, N297A, name in Kabat numbering)
# heavy: B1 heavy with R16E, Q31N
# chain: B1 chain
# light: B1 light
# notes: one-arm antibody
# Biological target: T1, CD3 epsilon homodimer protein (UniProt P07766 23-126)
# T1 construct: also called CD3 (CD3 epsilon)
# Experiment: SPR Biacore T200, CD3 epsilon homodimer on chip, antibody as analyte;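 further: homodimer amine-coupled to a CM4 sensor chip, run at 25 °C in HBS-EP+ buffer, with kinetic parameters derived in Biacore T200 Evaluation Software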
# Description: An appropriate amount of CD3 epsilon homodimer protein was immobilized onto Sensor chip CM4 (GE Healthcare Japan Corp.) by the amine coupling method. Then, the antibody having an appropriate concentration was injected thereto as an analyte and allowed to interact with the CD3 epsilon homodimer protein on the sensor chip. Then, the sensor chip was regenerated by the injection of 10 mmol/L glycine-HCl (pH 1.5). The assay was conducted at 25 degrees C., and HBS-EP+(GE Healthcare Japan Corp.) was used as a running buffer. […] Each parameter was calculated using Biacore T200 Evaluation Software (GE Healthcare Japan Corp.).
# Specifically, when the amount of the antibody comprising CE115HA000 bound was defined as X and the amount of the H chain one-amino acid altered form bound was defined as Y, a value of Z (ratio of amounts bound)=Y/X was used.
# T1 sequence (P07766 23-126): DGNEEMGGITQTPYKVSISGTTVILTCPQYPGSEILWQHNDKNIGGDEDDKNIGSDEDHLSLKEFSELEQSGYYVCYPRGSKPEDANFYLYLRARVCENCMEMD
row,KD ratio (KD of CE115HA000 / KD of altered form),Binder
1,0.94,B1
2,1.05,B2
3,1.03,B3
4,1.07,B4
5,0.55,B5
6,0.71,B6
7,0.95,B7
8,0.79,B8
9,0.55,B9
10,1.1,B10
11,0.57,B11
12,0.59,B12
13,0.82,B13
14,16700,B14
15,0.8,B15
16,0.59,B16
17,0.91,B17

row,KD ratio (KD of CE115HA000 / KD of altered form),Binder
1,0.67,B18
2,1.21,B19
3,22.6,B20
4,0.58,B21
5,0.55,B22
6,49.1,B23
7,0.84,B24
8,0.69,B25
9,0.97,B26
10,0.98,B27
11,0.94,B28
12,75.4,B29
13,47.4,B30
14,1.41,B31
15,0.57,B32
16,0.74,B33
